{
  "source": "the RNAGym collection of RNA variant scans (doi:10.1073/pnas.2313332121)",
  "parents": {"B1": {"name": "TPR 5TU (parent)", "chain": "GGAUCUUCUCGAUCUAACAAAAAAGACAAAUCUGCCACAAAGCUUGAGAGCAUCUUCGGAUGCAGAGGCGGCAGCCUUCGGUGGCGCGAUAGCGCCAACGUUCUCAACUAUGACACGCAAAACGCGUGCUCCGUUGAAUGGAGUUUAUCAUG"}},
  "note": "Fewer inactive variants are shown than the library holds.",
  "data": [
    {"variants_of": "B1", "assay": "polymerase ribozyme fitness, log enrichment relative to wild type (log ratio); higher = more active; in vitro selection for triplet polymerase activity", "in_short": "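Mutant libraries were PCR-built and transcribed for each subunit of a heterodimeric triplet polymerase ribozyme and selected for one round in triplicate at −7 °C, frozen, before gel excision of extended constructs and streptavidin-bead capture. Input and output libraries were Illumina-sequenced, keeping genotypes with ≥10 input reads and ≥1 read per output. Fitness is a logarithmic ratio of genotype to wild-type enrichment, in base 2, using inverse-variance-weighted replicate averages.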", "values": [
      {"variant": "A20G G46U G92U", "polymerase ribozyme fitness (log ratio)": -0.107},
      {"variant": "A21C G25C A52C A89U C118A A119C", "polymerase ribozyme fitness (log ratio)": -3.52},
      {"variant": "A21G A29G G83C A98U", "polymerase ribozyme fitness (log ratio)": "≤ -4.2"},
      {"variant": "A20G C57U C99A C108U", "polymerase ribozyme fitness (log ratio)": "≤ -4.2"},
      {"variant": "A20U A49C G50C G92U U146G C149U", "polymerase ribozyme fitness (log ratio)": "≤ -4.2"},
      {"variant": "A20C U53A G84A", "polymerase ribozyme fitness (log ratio)": -1.69},
      {"variant": "A20C C79A U82C A107C", "polymerase ribozyme fitness (log ratio)": "≤ -4.2"},
      {"variant": "A20C U31C A41C U55A C79A C99A C125G", "polymerase ribozyme fitness (log ratio)": "≤ -4.2"},
      {"variant": "A21C C36A C95G", "polymerase ribozyme fitness (log ratio)": -3.86},
      {"variant": "A21C C63U A73C C95A A98U", "polymerase ribozyme fitness (log ratio)": -3.29},
      {"variant": "A21G A23G G128C", "polymerase ribozyme fitness (log ratio)": "≤ -4.2"},
      {"variant": "A19U U55A A60G G94U G143U", "polymerase ribozyme fitness (log ratio)": -3.55},
      {"variant": "A20G A26U", "polymerase ribozyme fitness (log ratio)": -2.24},
      {"variant": "A21G C36U C57A", "polymerase ribozyme fitness (log ratio)": -0.735},
      {"variant": "A21G C93A C103U", "polymerase ribozyme fitness (log ratio)": -1.75},
      {"variant": "A21G A52C C75G C85U A89G C96G A150G", "polymerase ribozyme fitness (log ratio)": -3.89},
      {"variant": "A19U A30C G42A C43G C54G G70U U77C C96G A107G", "polymerase ribozyme fitness (log ratio)": "≤ -4.2"},
      {"variant": "A20G C85A", "polymerase ribozyme fitness (log ratio)": -2.13},
      {"variant": "A20G C85G", "polymerase ribozyme fitness (log ratio)": -2.92},
      {"variant": "A20C A37C A40C G58C C95U", "polymerase ribozyme fitness (log ratio)": -4.12},
      {"variant": "A21C C43A", "polymerase ribozyme fitness (log ratio)": "≤ -4.2"},
      {"variant": "A21G C54A G83U C87A C96U A122C", "polymerase ribozyme fitness (log ratio)": "≤ -4.2"},
      {"variant": "A21G A22U G67A G86C C96U G117A", "polymerase ribozyme fitness (log ratio)": "≤ -4.2"},
      {"variant": "A20G C51U G58A C85U A106U", "polymerase ribozyme fitness (log ratio)": -2.76},
      {"variant": "A20C A23U A28U G65U A73U G86U", "polymerase ribozyme fitness (log ratio)": "≤ -4.2"},
      {"variant": "A19G C87A C116A G143C U145G G152U", "polymerase ribozyme fitness (log ratio)": "≤ -4.2"},
      {"variant": "A20G U104C G117U", "polymerase ribozyme fitness (log ratio)": -0.102},
      {"variant": "A20U A41U C63A A106G U145A", "polymerase ribozyme fitness (log ratio)": -2.83},
      {"variant": "A19G G68U C79G G84A G86A U135C G140U", "polymerase ribozyme fitness (log ratio)": "≤ -4.2"},
      {"variant": "A19G C96U U101G", "polymerase ribozyme fitness (log ratio)": -0.801},
      {"variant": "A20U C54A A66U U77C C116G C125A U148C", "polymerase ribozyme fitness (log ratio)": "≤ -4.2"},
      {"variant": "A21C C93A", "polymerase ribozyme fitness (log ratio)": -2.02},
      {"variant": "A20U A29G A52G A89U C96A", "polymerase ribozyme fitness (log ratio)": "≤ -4.2"},
      {"variant": "A21G A26C A66U C87G A115C U134C U146A", "polymerase ribozyme fitness (log ratio)": "≤ -4.2"},
      {"variant": "A20C A24G A40C C69A C75G C87U G88C U102C G124A G133C U135C A147C", "polymerase ribozyme fitness (log ratio)": "≤ -4.2"},
      {"variant": "A21C G50A A122U", "polymerase ribozyme fitness (log ratio)": -1.39},
      {"variant": "A20U A29U G71U G84A", "polymerase ribozyme fitness (log ratio)": "≤ -4.2"},
      {"variant": "A20U G67C", "polymerase ribozyme fitness (log ratio)": "≤ -4.2"},
      {"variant": "A21G A91G A115U C116A", "polymerase ribozyme fitness (log ratio)": -3.91},
      {"variant": "A19U C35G C57U U90C C96A C132U", "polymerase ribozyme fitness (log ratio)": "≤ -4.2"},
      {"variant": "A19G G50U U55A C96U U145G", "polymerase ribozyme fitness (log ratio)": -2.18},
      {"variant": "A20U A26C G84U C103G A106C C108G", "polymerase ribozyme fitness (log ratio)": "≤ -4.2"},
      {"variant": "A21C A26C C85U A89C G136A G141A", "polymerase ribozyme fitness (log ratio)": -4.04},
      {"variant": "A20G G68U G126U C132A", "polymerase ribozyme fitness (log ratio)": "≤ -4.2"},
      {"variant": "A21G G25C G34A A49G C72U G92C G112U", "polymerase ribozyme fitness (log ratio)": "≤ -4.2"},
      {"variant": "A20U G65C C85U A106U", "polymerase ribozyme fitness (log ratio)": "≤ -4.2"},
      {"variant": "A21G", "polymerase ribozyme fitness (log ratio)": 0.531},
      {"variant": "A21C", "polymerase ribozyme fitness (log ratio)": 0.199},
      {"variant": "A20U A47U G70C G80C C85G C93A C108U A122G U144G", "polymerase ribozyme fitness (log ratio)": "≤ -4.2"},
      {"variant": "A21C C57G", "polymerase ribozyme fitness (log ratio)": -0.649},
      {"variant": "A20C U61G", "polymerase ribozyme fitness (log ratio)": -1.36},
      {"variant": "A20U C54A U56A G84C G86C C96U G117C A122U U144A A150G", "polymerase ribozyme fitness (log ratio)": "≤ -4.2"},
      {"variant": "A20U G48U U61G C85G", "polymerase ribozyme fitness (log ratio)": "≤ -4.2"},
      {"variant": "A20G C54G U82A A98U U144A", "polymerase ribozyme fitness (log ratio)": -4.1},
      {"variant": "A20U U55A", "polymerase ribozyme fitness (log ratio)": -2.07},
      {"variant": "A20U U33C G71A U104A A106G A107G A137C", "polymerase ribozyme fitness (log ratio)": "≤ -4.2"},
      {"variant": "A20U A30G C38U G59C A60C A73U G92U", "polymerase ribozyme fitness (log ratio)": "≤ -4.2"},
      {"variant": "A20C C87A", "polymerase ribozyme fitness (log ratio)": "≤ -4.2"},
      {"variant": "A20C C87U", "polymerase ribozyme fitness (log ratio)": -1.36},
      {"variant": "A20C C36U A47C", "polymerase ribozyme fitness (log ratio)": -1.91},
      {"variant": "A19U G83A", "polymerase ribozyme fitness (log ratio)": -0.555},
      {"variant": "A19U G83U", "polymerase ribozyme fitness (log ratio)": -0.798},
      {"variant": "A19U U144A", "polymerase ribozyme fitness (log ratio)": -0.138},
      {"variant": "A20C A21G G48A C54A A113C A147C", "polymerase ribozyme fitness (log ratio)": "≤ -4.2"},
      {"variant": "A20U A60C A73G", "polymerase ribozyme fitness (log ratio)": -2.81},
      {"variant": "A20G A30U C63A C87U U146C", "polymerase ribozyme fitness (log ratio)": "≤ -4.2"},
      {"variant": "A20G G25C G58C A106U", "polymerase ribozyme fitness (log ratio)": -3.93},
      {"variant": "A19G C32A A47C G59C C85U A106C G143C", "polymerase ribozyme fitness (log ratio)": "≤ -4.2"},
      {"variant": "A19U A91C C129A", "polymerase ribozyme fitness (log ratio)": "≤ -4.2"},
      {"variant": "A19G U31G U44A G80A C123G G141C", "polymerase ribozyme fitness (log ratio)": "≤ -4.2"},
      {"variant": "A19U G86U", "polymerase ribozyme fitness (log ratio)": -1.75},
      {"variant": "A20U A23C A47G U77G G84C A97U C118U", "polymerase ribozyme fitness (log ratio)": "≤ -4.2"},
      {"variant": "A20G U55G C116U A121C", "polymerase ribozyme fitness (log ratio)": -0.705},
      {"variant": "A19U A21U C72G A89C C96G G143A", "polymerase ribozyme fitness (log ratio)": "≤ -4.2"},
      {"variant": "A21C G50C G74A C87G U109G", "polymerase ribozyme fitness (log ratio)": "≤ -4.2"},
      {"variant": "A19U A26C C38U A89G A98U A107C", "polymerase ribozyme fitness (log ratio)": "≤ -4.2"},
      {"variant": "A21G C57A G81C A97G U101C U135C", "polymerase ribozyme fitness (log ratio)": -1.99},
      {"variant": "A21C C32G A37U A49G C57U C75G G84A A107C A147U", "polymerase ribozyme fitness (log ratio)": "≤ -4.2"},
      {"variant": "A20U G58C C85U A98U C129U U134C", "polymerase ribozyme fitness (log ratio)": -1.85},
      {"variant": "A20U G70C C93G", "polymerase ribozyme fitness (log ratio)": "≤ -4.2"},
      {"variant": "A21C U90A G94C", "polymerase ribozyme fitness (log ratio)": "≤ -4.2"},
      {"variant": "A19U G42C G86U A110G C116A G117U", "polymerase ribozyme fitness (log ratio)": "≤ -4.2"},
      {"variant": "A19U G70A U82A U127G", "polymerase ribozyme fitness (log ratio)": "≤ -4.2"},
      {"variant": "A21C G84U U90C C116A A137C A138G", "polymerase ribozyme fitness (log ratio)": "≤ -4.2"}
    ]}
  ]
}
